T1: N-CoR RID2 peptide (Homo sapiens)
T1 chain: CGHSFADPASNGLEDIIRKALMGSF

T2: ACTR NR box 3 peptide (Homo sapiens, Rhodamine Red-labelled peptide)
T2 chain: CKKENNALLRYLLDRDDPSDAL

T3: N-CoR RID2 peptide (Homo sapiens, Rhodamine Red-labelled peptide)
T3 chain: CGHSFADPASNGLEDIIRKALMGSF

T4: ACTR NR box 3 peptide (Homo sapiens, 521 nM ATRA, Rhodamine Red-labelled peptide)
T4 chain: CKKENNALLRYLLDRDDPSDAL

T5: N-CoR RID2 peptide (Homo sapiens, 209 nM ATRA, Rhodamine Red-labelled peptide)
T5 chain: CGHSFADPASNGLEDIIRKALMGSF


Experiments:
Assay in all cases: fluorescence anisotropy
N-CoR RID2 peptide [1] = molecular target: T1, N-CoR RID2 peptide
ACTR NR box 3 peptide [2] = molecular target: T2, ACTR NR box 3 peptide
N-CoR RID2 peptide [3] = molecular target: T3, N-CoR RID2 peptide
ACTR NR box 3 peptide [4] = molecular target: T4, ACTR NR box 3 peptide
N-CoR RID2 peptide [5] = molecular target: T5, N-CoR RID2 peptide

Binder | Kd (N-CoR RID2 peptide [1]) | Kd (ACTR NR box 3 peptide [2]) | Kd (N-CoR RID2 peptide [3]) | Kd (ACTR NR box 3 peptide [4]) | Kd (N-CoR RID2 peptide [5])
RARα LBD (protein) ESYTLTPEVGELIEKVRKAHQETFPALCQLGKYTTNNSSEQRVSLDIDLWDKFSELSTKCIIKTVEFAKQLPGFTTLTIADQITLLKAACLDILILRICTRYTPEQDTMTFSDGLTLNRTQMHNAGFGPLTDLVFAFANQLLPLEMDDAETGLLSAICLICGDRQDLEQPDRVDMLQEPLLEALKVYVRKRRPSRPHMFPKMLMKITDLRSISAKGAERVITPKMEIPGSMPPLIQEMLENSEGLD | 12.2 µM | – | – | – | –
RARα LBD (protein) ESYTLTPEVGELIEKVRKAHQETFPALCQLGKYTTNNSSEQRVSLDIDLWDKFSELSTKCIIKTVEFAKQLPGFTTLTIADQITLLKAACLDILILRICTRYTPEQDTMTFSDGLTLNRTQLHNAGFGPLTDLVFAFANQLLPLEMDDAETGLLSAICLICGDRQDLEQPDRVDMLQEPLLEALKVYVRKRRPSRPHMFPKMLMKITDLRSISAKGAERVITLKMEIPGSMPPLIQEMLENSEGLD | 18.6 µM | – | – | – | –
RARα LBD (protein) ESYTLTPEVGELIEKVRKAHQETFPALCQLGKYTTNNSSEQRVSLDIDLWDKFSELSTKCIIKTVEFAKQLPGFTTLTIADQITLLKAACLDILILRICTRYTPEQDTMTFSDGLTLNRTQMHNAGFGPLTDLVFAFANQLLPLEMDDAETGLLSAICLICGDRQDLEQPDRVDMLQEPLLEALKVYVRKRRPSRPHMFPKMLMKITDLRSISAKGAERVITLKMEIPGSMPPLIQEMLENSEGLD | – | 155 µM | 18.9 µM | 55 µM | 74.2 µM
RARα LBD (protein) ESYTLTPEVGELIEKVRKAHQETFPALCQLGKYTTNNSSEQRVSLDIDLWDKFSELSTKCIIKTVEFAKQLPGFTTLTIADQITLLKAACLDILILRICTRYTPEQDTMTFSDGLTLNRTQMHNAGFGPLTDLVFAFANQLLPLEMDDAETGLLSAICLICGDRQDLEQPDRVDMLQEPLLEALKVYVRKRRPSRPHMFPKMLMKITDLRSISAKGAERVITLKMEIPGSMPPLIQETLENSEGLD | 10.9 µM | – | – | – | –
